From US20230136228A1 (LAMKAP BIO ALPHA, published 2023)
Where a chain is given by its changes, count along the chain named. Numbers in names are those of the source.

T1: human CEACAM3 (human, UniProt P40198 35-252)
T1 construct: whole, on cells
T1 sequence (looked up): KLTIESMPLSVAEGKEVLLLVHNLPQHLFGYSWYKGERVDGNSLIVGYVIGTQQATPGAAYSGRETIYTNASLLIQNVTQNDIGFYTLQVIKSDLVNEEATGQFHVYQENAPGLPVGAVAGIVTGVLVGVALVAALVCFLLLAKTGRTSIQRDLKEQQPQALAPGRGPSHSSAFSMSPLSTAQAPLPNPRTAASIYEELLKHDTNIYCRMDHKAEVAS

T2: human CEACAM4 (human, UniProt O75871 36-244)
T2 construct: whole, on cells
T2 sequence (looked up): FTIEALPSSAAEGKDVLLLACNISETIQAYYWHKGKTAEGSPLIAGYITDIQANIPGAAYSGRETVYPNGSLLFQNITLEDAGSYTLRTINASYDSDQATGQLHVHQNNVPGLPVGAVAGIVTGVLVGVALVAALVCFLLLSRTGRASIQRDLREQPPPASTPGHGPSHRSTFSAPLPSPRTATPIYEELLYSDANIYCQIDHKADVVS

T3: human CEACAM5 (carcinoembryonic antigen, CEA), cell surface (human, UniProt P06731 35-685)
T3 construct: whole, on cells; also called CD66e
T3 sequence (looked up): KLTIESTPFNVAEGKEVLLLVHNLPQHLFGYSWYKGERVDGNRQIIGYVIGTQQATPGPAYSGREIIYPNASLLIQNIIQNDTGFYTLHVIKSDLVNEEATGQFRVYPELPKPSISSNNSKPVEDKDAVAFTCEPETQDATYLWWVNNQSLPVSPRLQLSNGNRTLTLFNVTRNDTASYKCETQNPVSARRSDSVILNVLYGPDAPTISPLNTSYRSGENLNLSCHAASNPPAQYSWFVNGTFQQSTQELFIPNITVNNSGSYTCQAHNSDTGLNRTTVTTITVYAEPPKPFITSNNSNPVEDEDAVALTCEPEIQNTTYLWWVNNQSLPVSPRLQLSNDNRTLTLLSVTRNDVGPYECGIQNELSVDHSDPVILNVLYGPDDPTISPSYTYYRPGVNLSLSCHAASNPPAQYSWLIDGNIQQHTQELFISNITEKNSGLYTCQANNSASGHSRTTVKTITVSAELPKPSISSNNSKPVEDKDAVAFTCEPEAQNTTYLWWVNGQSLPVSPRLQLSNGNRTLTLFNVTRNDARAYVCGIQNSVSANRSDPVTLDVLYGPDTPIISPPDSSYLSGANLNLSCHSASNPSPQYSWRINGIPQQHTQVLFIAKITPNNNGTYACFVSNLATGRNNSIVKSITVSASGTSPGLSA

T4: human CEACAM6 (human, UniProt P40199 35-320)
T4 construct: whole, on cells; also called CD66c
T4 sequence (looked up): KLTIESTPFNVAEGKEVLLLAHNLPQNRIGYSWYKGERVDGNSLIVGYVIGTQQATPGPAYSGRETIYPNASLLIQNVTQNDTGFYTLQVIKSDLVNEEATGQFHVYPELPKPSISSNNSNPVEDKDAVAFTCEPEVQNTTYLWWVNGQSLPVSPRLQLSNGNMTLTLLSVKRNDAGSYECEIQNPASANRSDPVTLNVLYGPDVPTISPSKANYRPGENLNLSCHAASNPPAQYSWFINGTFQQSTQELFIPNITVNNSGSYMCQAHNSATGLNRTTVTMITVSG

B1: AB17L3-1/N (bispecific antibody, human IgG1, kappa, lambda, L234A L235A)
heavy: EVQLVESGGGLVQPGGSLKLSCAASGFTFNTYAMNWVRQAPGKGLEWVGRIRSKYNNYATYYADSVKDRFTISRDDSKNTAYLQMNSLKTEDTAVYYCVRHGNFGNSYVSWFAYWGQGTLVTVSSASTKGPSVFPLAPSSKSTSGGTAALGCLVKDYFPEPVTVSWNSGALTSGVHTFPAVLQSSGLYSLSSVVTVPSSSLGTQTYICNVNHKPSNTKVDKRVEPKSCDKTHTCPPCPAPEAAGGPSVFLFPPKPKDTLMISRTPEVTCVVVDVSHEDPEVKFNWYVDGVEVHNAKTKPREEQYNSTYRVVSVLTVLHQDWLNGKEYKCKVSNKALAAPIEKTISKAKGQPREPQVYTLPPSREEMTKNQVSLTCLVKGFYPSDIAVEWESNGQPENNYKTTPPVLDSDGSFFLYSKLTVDKSRWQQGNVFSCSVMHEALHNHYTQKSLSLSPG
light 1: EIVLTQSPATLSLSPGERATLSCRASQSVNSNLNWYQQKPGQAPRLLIYHGSNRATGIPARFSGSGSGTDFTLTISSLEPEDFAVYYCQQFDYFKEHNTFGQGTKVEIKRTVAAPSVFIFPPSDEQLKSGTASVVCLLNNFYPREAKVQWKVDNALQSGNSQESVTEQDSKDSTYSLSSTLTLSKADYEKHKVYACEVTHQGLSSPVTKSFNRGEC
light 2: QTVVTQEPSLTVSPGGTVTLTCRSSTGAVTTSNYANWFQQKPGQAPRGLIGGTNKRAPGTPARFSGSLLGGKAALTLSGAQPEDEAEYYCALWYKQRWVFGGGTKLTVLGQPKAAPSVTLFPPSSEELQANKATLVCLISDFYPGAVTVAWKADSSPVKAGVETTTPSKQSNNKYAASSYLSLTPEQWKSHRSYSCQVTHEGSTVEKTVAPTECS
notes: Kappa-lambda body, lead optimization wave 1
B2: AB1L3-1/N (bispecific antibody, human IgG1, kappa, lambda, L234A L235A)
heavy: B1 heavy
light 1: B1 light 1 with Y93L, F94R, K95H
light 2: B1 light 2
notes: Kappa-lambda body: common heavy chain (hIgG1 L234A+L235A+P329A), kappa CEA light chain AB1, lambda CD3 light chain L3-1 (1A4); also called parental KL bispecific antibody
B3: AB73L3-1/N (bispecific antibody, human IgG1, kappa, lambda, L234A L235A)
heavy: B1 heavy
light 1: B1 light 1 with G51S, S52N, A55P, T56H, K95R, H97Y
light 2: B1 light 2
notes: Kappa-lambda body, lead optimization wave 2
B4: AB71L3-1/N (bispecific antibody, human IgG1, kappa, lambda, L234A L235A)
heavy: B1 heavy
light 1: B1 light 1 with G51S, A55P, T56H
light 2: B1 light 2
notes: as for B3
B5: AB72L3-1/N (bispecific antibody, human IgG1, kappa, lambda, L234A L235A)
heavy: B1 heavy
light 1: B1 light 1 with G51S, S52T, A55P, T56R, H97Y
light 2: B1 light 2
notes: as for B3

Each binder was assayed against T1, human CEACAM3 (assay: flow cytometry, transfected PEAK cells, 10 mcg/ml).
Excerpt: (§1) Vectors encoding the full-length version of human CEACAM 1, 3, 4, 5, 6, 7, 8, 18, 19, 20 and […] are used to express these proteins at the surface of PEAK and/or CHO cells as described in Example 1. Similarly, vectors encoding the full-length version of cyno CEACAM 5 and 6 are also used to express these proteins at the surface of PEAK and/or CHO cells. Non-transfected PEAK and/or CHO cells are used as negative control. Cells are harvested, counted, checked for viability and resuspended at 3×10⁶ cells/ml in FACS buffer (PBS 2% BSA, 0.1% NaN₃). 100 μl of the cell suspension are distributed in V-bottom 96-well plates (3×10⁵ cells/well). The supernatant is removed by centrifugation 3 minutes at 4° C., 1300 rpm and the cells incubated for 15 minutes at 4° C. with increasing concentrations of the antibody according to the invention. The antibodies carrying the anti-CEACAM5 arms to test are diluted in FACS buffer and the concentration range is 30 pM-500 nM. Cells are washed twice with cold FACS buffer and re-incubated for further 15 minutes at 4° C. with a compatible anti-human IgG secondary antibody. Cells are washed twice with cold FACS buffer and resuspended in 300 μl FACS buffer with 1:1500-diluted TOPRO-3 (Invitrogen). Fluorescence is measured using a FACSCalibur™ (BD Biosciences) or a Cytoflex Platform (Beckman Coulter). Dose-response binding curves are fitted using GraphPad Prism8 software. In the same manner, CEACAM1, CEACAM6 and other CEACAMs can be characterized.
(§2) For the bispecific antibodies AB17L3-1/N, AB71L3-1/N, AB72L3-1/N, AB73L3-1/N the MFI measured for binding to CEACAM5 transfected cells was found between 29000 and 41000 (Table 2). In contrast MFI found by using PEAK cells transfected with CEACAM 1,3,4,6,8 were found below 1000 with the only exception of a strong signal for AB72L3-1/N on CEACAM8 transfected cells. When MFI values obtained on transfected cells expressing any given CEACAM are divided by the values obtained on WT PEAK cells, “factors to PEAK WT” can be calculated (Table 3).

Binder	MFI [MFI]
B1	633
B2	358
B3	465
B4	358
B5	474

Each binder was assayed against T2, human CEACAM4 (assay: flow cytometry, transfected PEAK cells, 10 mcg/ml).
Excerpt: as §1, §2

Binder	MFI [MFI]
B1	431
B2	330
B3	352
B4	323
B5	402

The binders below were run against T3, human CEACAM5 (carcinoembryonic …) (assay: flow cytometry, MKN-45 cells).
Excerpt: Examples of cells that can be used include CEACAM5-positive cell lines such as the gastric adenocarcinoma cell line MKN45 (expressing 155′000 CEACAM5 molecules per cell), or the pancreatic adenocarcinoma cell line HPAF-II (expressing 108′000 CEACAM5 molecules per cell) or the colorectal adenocarcinoma cell line LS174T (expressing 26′000 CEACAM5 molecules per cell) and CEACAM5-negative cell lines, such as the lung carcinoma cell line A549 and the MKN45 CEACAM5-knock out cell line generated by CRISPR-CAS9 methodology. Cell staining and binding assessment can be performed as described above. Binding of the bsAb of the invention at 200 nM, 1000 nM and 5000 nM is 40% and higher compared to binding of TCB2014 (see Table 4 and also FIGS. 11 and 14).

Binder	EC50 [nM]	Top MFI value [MFI]	binding higher than TCB2014 (at 200 nM, 1000 nM and 5000 nM) [%]
B1	59.2	862000	≥ 40
B3	27.8	921000	≥ 40
B4	34.1	833000	≥ 40
B5	24.5	963000	≥ 40

Each binder was assayed against T2, human CEACAM4 (assay: flow cytometry, transfected PEAK cells).
Excerpt: as §1, §2

Binder	binding result
B1	no binding (tested: 10 mcg/ml)
B2	no binding (tested: 10 mcg/ml)
B5	no binding (tested: 10 mcg/ml)

The binders below were run against T4, human CEACAM6 (assay: flow cytometry, transfected PEAK cells).
Excerpt: as §1, §2

Binder	binding result
B1	no binding (tested: 10 mcg/ml)
B2	no binding (tested: 10 mcg/ml)
B5	no binding (tested: 10 mcg/ml)
